Assay results taken from article PMC3855486, “New Insights into the Phylogeny and Molecular Classification of Nicotinamide Mononucleotide Deamidases” (PLoS ONE, 2013).

Substrate: NC(=O)c1ccc[n+]([C@@H]2O[C@H](COP(=O)(O)O)[C@@H](O)[C@H]2O)c1
Test: HPLC, decrease of NMN peak area
Format: biochemical, Oceanobacillus iheyensis
Details: 50 mM phosphate buffer pH 7.5, 37 °C, Michaelian, NMN 0.01-1 mM

B1: OiPncC (Oceanobacillus iheyensis HTE831) (protein)
chain: MKNYQAEIVAVGTELLLGQIANTNAQWLSEKLATYGINMYNHTVVGDNLERVEQAFQLAQSRSNIIIVTGGLGPTADDLTREGFQQMTGLPLVEDKESMEKIEGFFQNRGRTMTPNNRKQARVFEGSTVLNNKAGMAPGMYVHYQSCHWFFLPGVPREMKHISQEELFPFLEKVTGKQRIIQSVVLKFIGIGESTLEHTLSDLIEKQTNPTIAPLAQDQAVVIRLTARGETKQEAEAMLEQTKKLILARVGEHYFGENEESIEDIVVQQLQDLGYSISAAESITGGMFSQRLVSVTGASNVFAGSFITYQSRIKEEVLEVPSEIIHSQGVVSRACSDAMASNVTRKIQTNLGISFTGIAGPDEQEGKPVGTVYISIADGDEVVVSKQFNFTGNRNHIRDRACLKGFELIYQYLKSKS
notes: full length, 417 residues (gene misprinted as 417 bp), MocF-CinA two-domain; C-terminal His6 (pET24b), E. coli Rosetta2(DE3)
- Km: 180 ± 20 µM
- kcat: 0.38 ± 0.01 s⁻¹
